Data as given in patent publication US20110318339A1 (FABRUS, published 2011).
Where a chain is given by its changes, count along the chain named. Names may count otherwise. Values belong to the binder of their own block, whether it stands above or below them.

Key:
[1] = target: T1, Recombinant Human DLL4 (Cat# 1506-D4/CF, R&D Systems) (human, UniProt Q9NR61 27-529); experiment: ELISA, DLL4 coated, estimated from dose-dependent binding
T1 construct: Bought protein; also called rHuman DLL4; hDLL4
Method: (§1) The plate was blocked by adding 1% BSA in Tris-buffered Saline Tween (TBST) and incubating for 1 hour at room temperature followed by washing 2 times with 150 μl TBST. A Fab antibody was serially diluted in 1% BSA in PBS. A 50 μl aliquot of each serial dilution was added, in triplicate, to each well and the plate was incubated for 1 hour at room temperature followed by washing 2 times with TBST. 50 μl of either goat anti-human kappa HRP conjugated secondary antibody (Cat # A7164-1 mL, Sigma-Aldrich) or goat anti-human lambda HRP conjugated secondary antibody (Cat # L1645-1 ml, Sigma-Aldrich), diluted 1:1000 in 1% BSA in PBS, was added to each well and the plate was incubated for 30 minutes at room temperature followed by washing 3 times with 200 μl TBST. Finally, 50 μl TMB one-component reagent (Cat # TMBW-1000-01, BioFax) was added and allowed to develop for 2 minutes at room temperature. The reaction was immediately halted by the addition of 50 μl 0.5M H₂SO₄ and the absorbance at 450 nm was measured using an ELISA plate reader.

[2] = target: T2, recombinant human DLL4 (Cat# 1506-D4/CF, R&D Systems) (human, UniProt Q9NR61 27-529); experiment: ELISA, DLL4 coated, Fab 12.5 nM
T2 construct: Bought protein; also called hDLL4; rHuman DLL4
Method: as §1

[3] = target: T2, recombinant human DLL4 (Cat# …); experiment: ELISA, DLL4 coated, Fab 100 nM
Method: as §1

[4] = target: T2, recombinant human DLL4 (Cat# …); experiment: ELISA, DLL4 coated, Fab 3.125 nM
Method: as §1

[5] = target: T2, recombinant human DLL4 (Cat# …); experiment: ELISA, DLL4 coated, Fab 50 nM
Method: as §1

[6] = target: T2, recombinant human DLL4 (Cat# …); experiment: ELISA, DLL4 coated, Fab 25 nM
Method: as §1

[7] = target: T2, recombinant human DLL4 (Cat# …); experiment: ELISA, DLL4 coated, Fab 6.25 nM
Method: as §1

[8] = target: T2, recombinant human DLL4 (Cat# …); experiment: ELISA, DLL4 coated, Fab 0.63 nM
Method: as §1

[9] = target: T2, recombinant human DLL4 (Cat# …); experiment: ELISA, DLL4 coated, Fab 1.3 nM
Method: as §1

[10] = target: T2, recombinant human DLL4 (Cat# …); experiment: ELISA, DLL4 coated, Fab 5 nM
Method: as §1

[11] = target: T2, recombinant human DLL4 (Cat# …); experiment: ELISA, DLL4 coated, Fab 20 nM
Method: as §1

[12] = target: T2, recombinant human DLL4 (Cat# …); experiment: ELISA, DLL4 coated, Fab 0.31 nM
Method: as §1

[13] = target: T2, recombinant human DLL4 (Cat# …); experiment: ELISA, DLL4 coated, Fab 2.5 nM
Method: as §1

[14] = target: T2, recombinant human DLL4 (Cat# …); experiment: ELISA, DLL4 coated, Fab 10 nM
Method: as §1

[15] = target: T2, recombinant human DLL4 (Cat# …); experiment: ELISA, DLL4 coated, Fab 0.16 nM
Method: as §1

B1: Fab H:APFF TV & L6_IGKJ1*01 (Fab, V domains shown)
VH: QVQLVQSGAEVKKPGASVKVSCKASGYTFTSYYMHWVRQAPGQGLEWMGITVPSGGSTSYAQKFQGRVTMTRDTSTSTVYMELSSLRSEDTAVYYCAREEYAPFSAEYFQFWGQGTLVTVSS
VL: not shown
notes: Fab, kappa light chain; also called H:APFF TV & L:wt; APFF I51T/N52V
- Kd [1]: 10 to 100 nM

B2: Fab H:APFF LTH & L6_IGKJ1*01 (Fab, V domains shown)
VH: B1 VH with T51I, V52L, S54T, G56H
VL: not shown
notes: Fab, kappa light chain; also called H:APFF LTH & L:wt
- Kd [1]: 1 to 10 nM

B4: Fab VH1-46_IGHD6-6*01_IGHJ1*01 S102A/S103P/S104F/H111F & L6_IGKJ1*01 S28N/S30D/S31H A55G (Fab, V domains shown)
VH: B1 VH with T51I, V52N
VL: EIVLTQSPATLSLSPGERATLSCRASQNVDHYLAWYQQKPGQAPRLLIYDASNRGTGIPARFSGSGSGTDFTLTISSLEPEDFAVYYCQQRSNWPPWTFGQGTKVEIKR
notes: Fab made in E. coli: VH on CH1 with His6 and Flag tags (Plasmid A), VL on kappa CL (Plasmid C); also called H: APFF & L: NDH A55G
- ELISA absorbance at 450 nm [2]: 0.198 A450
- ELISA absorbance at 450 nm [3]: 0.814 A450
- ELISA absorbance at 450 nm [4]: 0.093 A450
- ELISA absorbance at 450 nm [5]: 0.51 A450
- ELISA absorbance at 450 nm [6]: 0.316 A450
- ELISA absorbance at 450 nm [7]: 0.125 A450

B5: Fab VH1-46_IGHD6-6*01_IGHJ1*01 S102A/S103P/S104F/H111F & L6_IGKJ1*01 S28N/S30D/S31H N53H (Fab, V domains shown)
VH: B1 VH with T51I, V52N
VL: B4 VL with N53H, G55A
notes: Fab made in E. coli: VH on CH1 with His6 and Flag tags (Plasmid A), VL on kappa CL (Plasmid C); also called H: APFF & L: NDH N53H
- ELISA absorbance at 450 nm [2]: 0.167 A450
- ELISA absorbance at 450 nm [3]: 0.608 A450
- ELISA absorbance at 450 nm [4]: 0.089 A450
- ELISA absorbance at 450 nm [5]: 0.416 A450
- ELISA absorbance at 450 nm [6]: 0.238 A450
- ELISA absorbance at 450 nm [7]: 0.109 A450

B7: Fab H:APFF NLTH & L6_IGKJ1*01 (Fab, V domains shown)
VH: B1 VH with T51N, V52L, S54T, G56H
VL: not shown
notes: Fab, kappa light chain; also called H:APFF NLTH & L:wt
- Kd [1]: 1 to 10 nM

B9: Fab H:APFF TLATH & L6_IGKJ1*01 (Fab, V domains shown)
VH: B1 VH with V52L, P53A, S54T, G56H
VL: not shown
notes: Fab, kappa light chain; also called H:APFF TLATH & L:wt
- Kd [1]: > 100 nM

The remaining lines, values ahead:

- ELISA absorbance at 450 nm [2]: 0.215 A450
- ELISA absorbance at 450 nm [3]: 0.653 A450
- ELISA absorbance at 450 nm [4]: 0.099 A450
- ELISA absorbance at 450 nm [5]: 0.49 A450
- ELISA absorbance at 450 nm [6]: 0.323 A450
- ELISA absorbance at 450 nm [7]: 0.13 A450
B3: Fab VH1-46_IGHD6-6*01_IGHJ1*01 S102A/S103P/S104F/H111F & L6_IGKJ1*01 S28N/S30D/S31H S52T (Fab, V domains shown)
VH: B1 VH with T51I, V52N
VL: B4 VL with S52T, G55A
notes: Fab made in E. coli: VH on CH1 with His6 and Flag tags (Plasmid A), VL on kappa CL (Plasmid C); also called H: APFF & L: NDH S52T

- ELISA absorbance at 450 nm [8]: 1.37 A450
- ELISA absorbance at 450 nm [9]: 0.653 A450
- ELISA absorbance at 450 nm [10]: 2.48 A450
- ELISA absorbance at 450 nm [11]: 2.4 A450
- ELISA absorbance at 450 nm [12]: 2.4 A450
- ELISA absorbance at 450 nm [13]: 2.15 A450
- ELISA absorbance at 450 nm [14]: 2.35 A450
- ELISA absorbance at 450 nm [15]: 2.35 A450
B6: Fab VH1-46_IGHD6-6*01_IGHJ1*01 S102A/S103P/S104F/H111F N52L/S54T/G56H & L6_IGKJ1*01 (Fab, V domains shown)
VH: B1 VH with T51I, V52L, S54T, G56H
VL: not shown
notes: Fab made in E. coli: VH on CH1 with His6 and Flag tags (Plasmid A), VL on kappa CL (Plasmid C); also called H: APFF LTH & L: wt

- ELISA absorbance at 450 nm [8]: 0.227 A450
- ELISA absorbance at 450 nm [9]: 0.078 A450
- ELISA absorbance at 450 nm [10]: 1.27 A450
- ELISA absorbance at 450 nm [11]: 1.11 A450
- ELISA absorbance at 450 nm [12]: 1.11 A450
- ELISA absorbance at 450 nm [13]: 0.592 A450
- ELISA absorbance at 450 nm [14]: 0.875 A450
- ELISA absorbance at 450 nm [15]: 0.875 A450
B8: Fab VH1-46_IGHD6-6*01_IGHJ1*01 S102A/S103P/S104F/H111F I51T/N52L/P53A/S54T/G56H & L6_IGKJ1*01 (Fab, V domains shown)
VH: B1 VH with V52L, P53A, S54T, G56H
VL: not shown
notes: Fab made in E. coli: VH on CH1 with His6 and Flag tags (Plasmid A), VL on kappa CL (Plasmid C); also called H: APFF TLATH & L: wt

- ELISA absorbance at 450 nm [8]: 1.01 A450
- ELISA absorbance at 450 nm [9]: 0.402 A450
- ELISA absorbance at 450 nm [10]: 2.33 A450
- ELISA absorbance at 450 nm [11]: 2.29 A450
- ELISA absorbance at 450 nm [12]: 2.29 A450
- ELISA absorbance at 450 nm [13]: 1.98 A450
- ELISA absorbance at 450 nm [14]: 2.17 A450
- ELISA absorbance at 450 nm [15]: 2.17 A450
B10: Fab VH1-46_IGHD6-6*01_IGHJ1*01 S102A/S103P/S104F/H111F I51E/N52L/S54T/G56H & L6_IGKJ1*01 (Fab, V domains shown)
VH: B1 VH with T51E, V52L, S54T, G56H
VL: not shown
notes: Fab made in E. coli: VH on CH1 with His6 and Flag tags (Plasmid A), VL on kappa CL (Plasmid C); also called H: APFF ELTH & L: wt
